# Target: human E-cadherin on human embryonic stem cells (hESCs; CyT203) (human) (UniProt P12830)
# Test: cell-based or functional assay
# Chain of UniProt P12830 (P12830 155-882 limits assumed): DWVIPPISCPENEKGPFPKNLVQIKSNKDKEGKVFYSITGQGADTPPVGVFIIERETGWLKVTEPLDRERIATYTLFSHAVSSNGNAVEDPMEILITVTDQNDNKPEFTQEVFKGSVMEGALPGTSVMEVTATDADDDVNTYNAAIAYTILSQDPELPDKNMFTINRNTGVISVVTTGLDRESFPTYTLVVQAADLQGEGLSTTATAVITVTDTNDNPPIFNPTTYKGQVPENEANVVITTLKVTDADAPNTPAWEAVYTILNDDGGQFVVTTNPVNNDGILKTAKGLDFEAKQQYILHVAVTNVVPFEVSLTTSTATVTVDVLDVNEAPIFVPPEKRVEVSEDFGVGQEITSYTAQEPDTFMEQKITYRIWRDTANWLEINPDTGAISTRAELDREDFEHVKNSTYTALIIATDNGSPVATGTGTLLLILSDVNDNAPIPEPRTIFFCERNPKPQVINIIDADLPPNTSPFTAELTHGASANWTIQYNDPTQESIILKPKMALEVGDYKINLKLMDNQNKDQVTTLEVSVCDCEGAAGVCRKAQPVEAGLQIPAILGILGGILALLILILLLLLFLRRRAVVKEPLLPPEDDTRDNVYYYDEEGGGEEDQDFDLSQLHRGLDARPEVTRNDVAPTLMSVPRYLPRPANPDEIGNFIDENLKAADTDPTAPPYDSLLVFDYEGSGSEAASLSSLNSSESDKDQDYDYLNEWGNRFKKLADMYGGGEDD
substance,measurement,value
mouse anti-human E-cadherin antibody (Zymed Cat. No. 13-1700),percentage of CXCR4 positive cells (flow cytometry after 3 days of differentiation to definitive endoderm; antibody at 5 µg/mL on day 1),93%
